Test results as given in PMC7078472.

B1: unnamed (parent)
chain 1: VHQRIASWQNLGAVYCSTVVPSDDVTVVYQNGLPVISVRLPSRRERCQFTLKPISDSVGVFLRQLQEEDRGIDRVAIYSPDGVRVAASTGIDLLLLDDFKLVINDLTYHVRPPKRDLLSHENAATLNDVKTLVQQLYTTLCIEQHQLNKERELIERLEDLKEQLAPLEKVRIEISRKAEKRTTLVLWGGLAYMATQFGILARLTWWEYSWDIMEPVTYFITYGSAMAMYAYFVMTRQEYVYPEARDRQYLLFFHKGAKKSRFDLEKYNQLKDAIAQAEMDLKRLRDPLQVHLPLRQIGEKD
chain 2: DIDTAAKFIGAGAATVGVAGSGAGIGTVFGSLIIGYARNPSLKQQLFSYAILGFALSEAMGLFCLMVAFLILFAM

Variants of: B1
Experiment: MYTH (membrane yeast two-hybrid) quantitative β-Gal activity assay
Conditions: with partner chain of the complex shown; yeast strain NMY51; n = 3; 6 colonies for each independent experiment; read off a plot

Row | Variant | response [units]
1 | chain 1 Q196A I199P L200P W205A | 26
